Substitutions are numbered along the chain they refer to. Names may count otherwise.

First the molecules themselves.
B1: His6-tagged RING domain heterodimer, GA mutant (GST-RING^A T948G^A-T952A^A with His6-Twin-Strep-Rad6A-RING^B) (complex)
chain 1: PDNVPKCDEILMEEIKDYKARLTCPCCNMRKKDAVLTKCFHVFCFECVKGRYDARQRKCPKCNAAFGANDFHRIYIG
chain 2: MSTPARRRLMRDFKRLQEDPPAGVSGAPSENNIMVWNAVIFGPEGTPFEDGTFKLTIEFTEEYPNKPPTVRFVSKMFHPNVYADGSICLDILQNRWSPTYDVSSILTSIQSLLDEPNPNSPANSQAAQLYQENKREYEKRVSAIVEQSWRDCVEVYADADEILQEEIKEYKARLTCPCCNTRKKDAVLTKCFHVFCFECVRGRYEARQRKCPKCNAAFGAHDFHRIYIS
modifications: RED-Tris-NTA label on the His6 tag
B2: His6-tagged RING domain heterodimer, wild type (GST-RING^A with His6-Twin-Strep-Rad6A-RING^B) (complex)
chain 1: B1 chain 1 with G50T, A54T
chain 2: B1 chain 2
modifications: RED-Tris-NTA label on the His6 tag
B3: His6-tagged RING domain heterodimer, TT mutant (GST-RING^A with His6-Twin-Strep-Rad6A-RING^B G974T^B-A978T^B) (complex)
chain 1: B1 chain 1 with G50T, A54T
chain 2: B1 chain 2 with G202T, A206T
modifications: RED-Tris-NTA label on the His6 tag
B4: His6-tagged RING domain heterodimer, GA + TT mutant (GST-RING^A T948G^A-T952A^A with His6-Twin-Strep-Rad6A-RING^B G974T^B-A978T^B) (complex)
chain 1: B1 chain 1
chain 2: B1 chain 2 with G202T, A206T
modifications: RED-Tris-NTA label on the His6 tag

This assay addresses nucleosome reconstituted with human core histones and Widom 601 DNA (human, UniProt P04908 2-130; P06899 1-126; P68431 1-136; P62805 2-103). Kind of assay: MST.
In turn, B1 came in with a Kd of 11.8 nM. The result for B2 reads 7.8 nM; that for B3, 7.3 nM. With B4, the Kd amounted to 34 nM.

Source of the values: article PMC10959955 (2024).
